{
  "source": "paper PMC5489075",
  "about": "“Purification and characterisation of the fission yeast Ndc80 complex” (Protein Expression and Purification, 2017)",
  "binders": {"B1": {"name": "Mal3 (natural protein, S. pombe, UniProt Q10113 1-308, looked up)", "chain": "MSESRQELLAWINQVTSLGLTRIEDCGKGYAMIQIFDSIYQDIPLKKVNFECNNEYQYINNWKVLQQVFLKKGIDKVVDPERLSRCKMQDNLEFVQWAKRFWDQYYPGGDYDALARRGNRGPANTRVMNSSAGATGPSRRRQVSSGSSTPSMTKSSANNNNVSSTANTAAVLRAKQAQQQITSLETQLYEVNETMFGLERERDFYFNKLREIEILVQTHLTTSPMSMENMLERIQAILYSTEDGFELPPDQPADLTTALTDHDTNNVAEEAQMTDLKDSETQRVPSAPDFVHARLQSLEVDDDENITF", "notes": "Mal3, fission yeast EB1 microtubule plus-end tracking protein; also called Mal3/EB1; unlabelled Mal3"}},
  "target": "T1, Ndc80-eGFP holo complex (S. pombe, UniProt Q10198 1-624; Q10173 1-441; Q9UST6 1-198; Q10430 1-238)",
  "T1 construct": "Ndc80, S. pombe, full-length 624 a.a; Nuf2, S. pombe, full-length 441 a.a; Spc24, S. pombe, full-length 198 a.a; Spc25, S. pombe, full-length 238 a.a; also called Ndc80 holo complex; Ndc80 complex; source: E. coli BL21 (DE3) RIL; two sub-complexes purified, mixed, purified (Ni-TED, TEV cleavage, Superose 6 size-exclusion chromatography); not shown: 6His-Z, N-terminal, cleaved; Z-tag, N-terminal, …",
  "T1 sequence (Q10198 whole entry, chain 1 of 4)": "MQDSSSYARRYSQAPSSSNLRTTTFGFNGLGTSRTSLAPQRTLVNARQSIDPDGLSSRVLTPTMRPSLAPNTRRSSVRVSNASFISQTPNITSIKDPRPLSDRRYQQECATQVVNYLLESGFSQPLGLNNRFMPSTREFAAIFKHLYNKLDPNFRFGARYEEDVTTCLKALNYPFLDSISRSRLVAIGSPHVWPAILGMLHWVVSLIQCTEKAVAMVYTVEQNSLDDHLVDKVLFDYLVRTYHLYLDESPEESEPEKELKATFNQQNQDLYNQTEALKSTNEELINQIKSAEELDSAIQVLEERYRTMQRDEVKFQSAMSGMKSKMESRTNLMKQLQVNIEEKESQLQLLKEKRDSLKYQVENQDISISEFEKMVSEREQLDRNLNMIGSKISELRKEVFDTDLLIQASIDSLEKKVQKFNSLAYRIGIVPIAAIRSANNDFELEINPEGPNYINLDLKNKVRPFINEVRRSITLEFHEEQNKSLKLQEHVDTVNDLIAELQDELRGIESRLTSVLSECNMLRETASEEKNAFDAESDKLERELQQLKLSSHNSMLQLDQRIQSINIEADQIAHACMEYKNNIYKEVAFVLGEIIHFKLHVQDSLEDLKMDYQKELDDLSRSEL",
  "T1 sequence (Q10173 whole entry, chain 2 of 4)": "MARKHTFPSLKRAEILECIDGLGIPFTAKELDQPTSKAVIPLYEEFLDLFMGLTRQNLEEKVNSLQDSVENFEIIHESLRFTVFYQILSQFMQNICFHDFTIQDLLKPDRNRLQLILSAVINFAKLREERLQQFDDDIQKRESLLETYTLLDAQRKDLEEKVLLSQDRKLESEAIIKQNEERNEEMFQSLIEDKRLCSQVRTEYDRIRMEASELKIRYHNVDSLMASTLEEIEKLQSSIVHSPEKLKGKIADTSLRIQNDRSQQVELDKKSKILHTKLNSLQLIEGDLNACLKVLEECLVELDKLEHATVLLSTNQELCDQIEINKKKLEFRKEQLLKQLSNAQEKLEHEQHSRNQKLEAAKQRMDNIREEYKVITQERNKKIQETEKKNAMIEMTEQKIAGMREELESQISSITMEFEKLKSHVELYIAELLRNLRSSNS",
  "T1 sequence (Q9UST6 whole entry, chain 3 of 4)": "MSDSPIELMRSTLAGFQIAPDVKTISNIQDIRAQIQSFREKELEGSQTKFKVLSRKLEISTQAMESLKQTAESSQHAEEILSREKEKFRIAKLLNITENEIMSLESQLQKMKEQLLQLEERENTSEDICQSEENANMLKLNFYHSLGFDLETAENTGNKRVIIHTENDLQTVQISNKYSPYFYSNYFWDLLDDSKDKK",
  "T1 sequence (Q10430 whole entry, chain 4 of 4)": "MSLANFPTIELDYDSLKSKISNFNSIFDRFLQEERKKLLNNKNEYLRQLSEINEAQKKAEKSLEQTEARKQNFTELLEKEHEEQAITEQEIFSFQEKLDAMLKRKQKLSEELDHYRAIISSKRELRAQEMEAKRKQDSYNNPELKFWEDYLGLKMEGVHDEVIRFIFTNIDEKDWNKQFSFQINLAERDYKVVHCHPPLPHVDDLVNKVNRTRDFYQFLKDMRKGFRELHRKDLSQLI",
  "test": "TIRF microscopy; 100 pM Ndc80-eGFP holo complex on dynamic Cy5-microtubules with 10 nM unlabelled Dis1 or 20 nM unlabelled Mal3; read-out is the place of the eGFP signal (lattice or growing plus end); BRB80 with 85 mM KCl, 30 °C",
  "details": "both partners purified",
  "data": [
    {"binder": "B1", "values": [
      {"measurement": "binding result", "value": "binds"}
    ]}
  ]
}
